The values below are quoted from earlier work in publication PMC7484323 (Molecular pharmaceutics, 2020).

In this data set the test system is B16/F1 melanoma. Conditions: 2 h post-injection.

For “hydrazinonicotinamide (HYNIC)-GGNle-CycMSHhex (sidechain bridge or staple) [99mTc(EDDA)-HYNIC-GGNle-CycMSHhex]”, the “kidney (renal) uptake” value is listed as 7.52 ± 0.96 %ID/g and the liver uptake is listed as 0.52 ± 0.05 %ID/g. For the same substance, the tumor uptake (B16/F1 melanoma) is given as 14.14 ± 4.90 %ID/g.
